In the supplement of paper PMC10567573:
± gives the standard deviation.

Test: protein stability index of a GFP-peptide fusion (GPS, HEK-293T) (PSI 1-6); higher = more stable
[1] = treatment: DMSO, c terminus: a fixed tail appended
[2] = treatment: MLN4924 1 uM, 8 h, c terminus: a fixed tail appended
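Also: 24-mer peptide tiles fused after GFP, lentivirally expressed, FACS-sorted into six equal bins by GFP/DsRed ratio, decoded by Illumina sequencing, PSI is the read-weighted mean bin number.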

Sequence | protein stability index [1] | protein stability index [2] | protein stability index (treatment: DMSO, c terminus: native) | protein stability index (treatment: MLN4924 1 uM, 8 h, c terminus: native)
PMALLTIGSSSEKEIDDVIDEIIS [TFE3] | 2.98 ± 0.099 | 3.29 ± 0.095 |  | 
LQSEPHRAGVQWKFAGSFYFAITV [KCNK9] | 3.47 ± 0.43 | 2.82 ± 0.81 |  | 
HYIAGAHGNEVLGRELLLLLVQFV [CPXM2] | 2 ± 0.075 | 2.22 ± 0.37 |  | 
LCEYFSQHLGEYENVLAALEGLNL [NECAB1] | 2.61 ± 0.35 | 2.63 ± 0.22 |  | 
LKKSSQVPRTEAPAPASSTPQEPW [PDLIM7] | 4.74 ± 0.3 | 4.76 ± 0.46 |  | 
AAKTLPGGAGKGRTPSAFPQTPAA [EHMT1] | 4.26 ± 0.33 | 4.39 ± 0.085 |  | 
ESNAAQYSPEALASIQNHVRKREA [EFHC1] | 4.87 ± 0.24 | 4.7 ± 0.27 |  | 
GGCTVGVAGEGVRRKGEMGLSAED [TRIM15] | 4.98 ± 0.46 | 5.21 ± 0.37 |  | 
IQVSLYCQEWYARRHCPLPQATFW [SOAT2] | 2.87 ± 0.38 | 3.07 ± 0.83 |  | 
QLEQPEKMPVLKAEASHYNSDLNN [RHOBTB3] | 4.83 ± 0.19 | 4.94 ± 0.15 |  | 
KQQIANLDKQAKLSRAYDGTTYLP [USP39] | 3.62 ± 0.19 | 3.87 ± 0.41 |  | 
DSQQPGKRRKDSEEEAASPEGKRV [FANCE] | 5.66 ± 0.13 | 5.5 ± 0.25 |  | 
ENIEVKEGGLYFERRPVAQSTDGA [SPSB2] | 4.55 ± 0.27 | 4.66 ± 0.18 |  | 
ETDSEMNSQESRSDLEDMEEEEGT [SMG5] | 5.74 ± 0.16 | 5.69 ± 0.074 |  | 
SKNEVGIFTTPNFDETSSATTIST [KMT2E] | 4.76 ± 0.22 | 4.79 ± 0.17 |  | 
RRDAETWFLSKTEELNKEVASNSE [KRT16] | 5.09 ± 0.35 | 5.19 ± 0.12 |  | 
EKTQDDLMKHQTNISELKRTFLET [EPB41L3] | 4.18 ± 0.68 | 4.2 ± 0.31 |  | 
PQLAGKWQVLCMLSLCCWGWVSGQ [PCDHGC5] | 2.88 ± 0.93 | 2.85 ± 0.43 |  | 
YSLRILIGDPPHHDHHDEFCLMP [BEX5] |  |  | 2.62 ± 0.4 | 2.03 ± 0.35
FGELMRKLWNPRNFKAHVSPHEML [USP39] | 2.51 ± 0.43 | 2.25 ± 0.084 |  | 
KFHHSDCLSTWLLHFIATNYLIFS [RHOBTB3] | 3.21 ± 0.23 | 3.05 ± 0.24 |  | 
ATYCVRTFALYKNGSSEKREVRQF [PTPRD] | 2.44 ± 0.4 | 2.35 ± 0.39 |  | 
EESRISVPVHSFASLNIKTTVPEV [PRPH] | 4.05 ± 0.35 | 3.98 ± 0.39 |  | 

Sequence | protein stability index [1] | protein stability index [2] | protein stability index (treatment: DMSO, c terminus: native) | protein stability index (treatment: MLN4924 1 uM, 8 h, c terminus: native)
LVPKTHLMSESEWRNLGVQQSQGW [CKS1B] | 2.64 ± 0.32 | 2.86 ± 0.2 |  | 
ALAKKFIDKNTQLTLQVYREQADS [TRIM14] | 2.88 ± 0.31 | 3.09 ± 0.49 |  | 
DETFLATSFLQHPWDESGSGCLPP [FOXJ1] | 4.15 ± 0.16 | 4.11 ± 0.079 |  | 
PGPTAPSPTSRPPWAVDPAFAERY [PDLIM7] | 2.2 ± 0.43 | 3.02 ± 0.36 |  | 
FVLNAAQCSMPLHVAPLLAAAGLH [NR2F2] | 3.13 ± 0.25 | 2.49 ± 0.48 |  | 
ALSQLICFCRESRYMDQWVPVINL [GADD45A] | 2.95 ± 0.45 | 3.06 ± 0.76 |  | 
RLWHTACASDEGEVIVFGGCANNL [KLHDC2] | 2.75 ± 0.34 | 2.89 ± 0.44 |  | 
SLGQDLRRLRQELLKTEALKRQAQ [DAPK3] | 3.09 ± 0.59 | 2.96 ± 0.14 |  | 
KTSAALSTVGSAISRKLGDMRNSA [TPD52L2] | 3.64 ± 0.29 | 3.7 ± 0.29 |  | 
EDLLLPGACPGADEAGGGAEGDSW [WEE1] | 5.53 ± 0.12 | 5.58 ± 0.22 |  | 
LLGGDLRYHLQQNVHFKEETVKLF [STK32A] | 2.36 ± 0.41 | 2.6 ± 0.27 |  | 
DSGVGKSNLLSRFTRNEFNLESKS [RAB11A] | 4.03 ± 0.11 | 4.08 ± 0.21 |  | 
LEDYINDRQYDSRGRFGELLLLLP [HNF4A] | 2.19 ± 0.32 | 2.22 ± 0.2 |  | 
PAMRNSPTFKSFEERVETTVTSLK [TPD52L1] | 4.61 ± 0.13 | 4.42 ± 0.2 |  | 
GFWETIFGNRIKRVKLISNKGTET [PHTF1] | 1.6 ± 0.16 | 2.74 ± 0.053 |  | 
KRRKSMSGASPKESTNPEKAHETL [CDC25A] | 5.24 ± 0.25 | 5.03 ± 0.23 |  | 
TIVNFPITNVDLREYLSEEVQAVH [USP39] | 2.92 ± 0.18 | 3.41 ± 0.41 |  | 
FLGLGAPNCLSMGSRCLKTFEVPE [ZBED1] | 2.3 ± 0.2 | 2.06 ± 0.28 |  | 
QVPRSPVIKISYSTPQGKGEVVKI [PWWP2B] | 2.73 ± 0.26 | 2.58 ± 0.26 |  | 
EAKEGDLHRIEIPFKFHMLHSGLV [CARM1] | 2.07 ± 0.48 | 2.49 ± 0.23 |  | 
VWDMRSGQCVQAFETHESDINSVR [GNB5] | 3.48 ± 0.24 | 3.56 ± 0.15 |  | 
RCLIWGRKPKVIECSYTSADGQRH [DHCR7] | 2.61 ± 0.33 | 2.77 ± 0.33 |  | 
FVCQCFEGYILREDGKTCRRKDVC [MATN2] | 1.99 ± 0.39 | 3.09 ± 0.092 |  | 

Sequence | protein stability index [1] | protein stability index [2] | protein stability index (treatment: DMSO, c terminus: native) | protein stability index (treatment: MLN4924 1 uM, 8 h, c terminus: native)
FPPDLVFRADQRSGPRQLLTLYNP [MOSPD3] | 3.13 ± 0.67 | 2.93 ± 0.29 |  | 
VIFLLLFAPFIVYYFIMACDQYSC [DHCR7] | 2.41 ± 0.19 | 2.39 ± 0.33 |  | 
EEEEEEEEAEAGEEAVPEEEGPTV [CHGA] | 5.34 ± 0.25 | 5.4 ± 0.25 |  | 
RDYKIQASRTWCFYNTEDIKDWED [PTGFR] | 3.28 ± 0.36 | 3.68 ± 0.49 |  | 
PKRCLKAREHFGTVKTHLTSLKTK [TSN] | 3.72 ± 0.32 | 3.88 ± 0.34 |  | 
MCFGPKKVKPAEAETAGAIMAFFL [SLC29A1] | 2.42 ± 0.45 | 2.13 ± 0.21 |  | 
QQQQLTFTAALEHCRENAHDKIRP [SPACA9] | 4.1 ± 0.22 | 4.03 ± 0.16 |  | 
KHSVLLSASRKSAEQLRIELNAEK [WEE1] | 3.92 ± 0.32 | 4.16 ± 0.21 |  | 
TEKLKANAESSKTWLKGKFTELRL [TRIM14] | 2.53 ± 0.43 | 2.48 ± 0.42 |  | 
QTPTKEELDAIIEEVDEDGSGTID [TNNC2] | 5.67 ± 0.44 | 5.16 ± 0.28 |  | 
EEADFLSAETGSPRLTMHYPCLEK [IRX6] | 4.49 ± 0.19 | 4.56 ± 0.065 |  | 
NCGLEEKIANLGSCNDSKLEFRSF [S100A14] | 2.25 ± 0.68 | 2.82 ± 1.2 |  | 
KIWPEIKVPRPDALDNESWGFVHP [RETREG3] | 2.68 ± 0.48 | 2.57 ± 0.54 |  | 
NIEDYFSHHLAVYNSPQFKKTMST [FBXO39] | 2.75 ± 0.28 | 2.71 ± 0.12 |  | 
RLVLCMELANGKPQTRSGPECGLA [ADAMTSL2] |  | 2.22 ± 0.53 |  | 
APLLRWVLTLSFLVATVAVGLYAM [HMOX1] | 2.84 ± 0.56 | 2.74 ± 0.69 |  | 
GKYNAMVLELLGPSLEDLFDLCDR [CSNK1G3] | 2.92 ± 0.28 | 2.18 ± 0.28 |  | 
RFLRAYREGALRAALQRSLAAALA [TRADD] | 2.27 ± 0.062 | 2.32 ± 0.18 |  | 
QYNRSSNSNGGNLNSPPGPHSAKT [CDC14A] | 4.42 ± 0.19 | 4.33 ± 0.29 |  | 
SRYRSLRPNRQLGSMVEIAKQLQA [TRIM39] | 2.74 ± 0.28 | 2.92 ± 0.34 |  | 
QPFYHDDSYTATGYGRAPGGLSLH [JUNB] | 3.18 ± 0.39 | 3.36 ± 0.24 |  | 
LALEEPVDYKQSVLNVAGEAGGKQ [SLC6A17] | 4.91 ± 0.45 | 5.32 ± 0.14 |  | 
HPDSPATGAHWMRQPVSFHRVKLT [TBX6] | 3.16 ± 0.16 | 3.23 ± 0.32 |  | 

Sequence | protein stability index [1] | protein stability index [2] | protein stability index (treatment: DMSO, c terminus: native) | protein stability index (treatment: MLN4924 1 uM, 8 h, c terminus: native)
TTSEEAVGGATPDQTTSEETVGGA [HDAC6] | 5.5 ± 0.32 | 5.57 ± 0.27 |  | 
LSPVLESPRDLQFSEIRETSAKVN [TNXB] | 4.9 ± 0.12 | 5.02 ± 0.34 |  | 
RTKQVLHTFKTRFTQPLLPAFTVW [FSD1] | 2.53 ± 0.32 | 2.44 ± 0.46 |  | 
KRRRSVTPPEEQQEAEEPKARVLR [CDC25B] | 5.32 ± 0.24 | 5.67 ± 0.21 |  | 
RRGSWRLPYTDGLSWELLDSHLGG [CTBP1-DT] | 2.09 ± 0.09 | 2.66 ± 0.26 |  | 
NDVRQAARSAASYMLFDPKDSVMQ [P3H4] | 3.97 ± 0.12 | 4.08 ± 0.39 |  | 
RCGKHFGTILNYLRDGAVPLPESR [KCTD10] | 2.27 ± 0.3 | 2.38 ± 0.32 |  | 
QQELRELRRELELLGRERDRVQVE [PRPH] | 4.06 ± 0.52 | 4.39 ± 0.29 |  | 
EMSKDALPEKACQLDSRYWRITNA [FBXO3] | 3.55 ± 0.24 | 3.5 ± 0.16 |  | 
IKEVVEKREACHCEEVKMTVASEA [FAN1] | 4.89 ± 0.25 | 4.95 ± 0.17 |  | 
KWWSDRLALFPLLPKVLQKYWCVT [ZBED1] | 2.93 ± 1 | 2.73 ± 0.61 |  | 
QDLKLFLQEPGVFSPTPPQQFQPA [FCHSD1] | 3.26 ± 0.34 | 3.55 ± 0.55 |  | 
LFENSLCRLTHIPAYKVSGDKNEE [ZER1] | 4.05 ± 0.17 | 4.04 ± 0.12 |  | 
RFPESHLPIQTPGAFLRTCLLSSN [TLE6] | 2.71 ± 0.14 | 2.6 ± 0.26 |  | 
SAAIHISETLEQKPHFESSTVKTE [EPB41L3] | 4.92 ± 0.66 | 5.06 ± 0.52 |  | 
AAYSSILSSLGENPQRQGLLKTPW [GCH1] | 2.54 ± 0.22 | 2.55 ± 0.29 |  | 
RSRGASQKKQKLEQKAAGSASAKR [FATE1] | 5.07 ± 0.27 | 5.06 ± 0.31 |  | 
ESKTDGDDTETVPSEQSHASGKLR [TCF25] | 5.54 ± 0.26 | 5.56 ± 0.4 |  | 
CSWKGATKQRIQDQKVPYIFRDNQ [CHIT1] | 2.87 ± 0.24 | 3.14 ± 0.62 |  | 
HWDLAELLPNQSHGNQSAGEDQAF [SLC22A15] | 4.85 ± 0.28 | 4.8 ± 0.28 |  | 
